B1: PSD2 (parent)
chain: PLMGETQERERVLTHFSRRYCQCN

Variants of: B1
Assay: protein stability index of a GFP-peptide fusion (GPS, HEK-293T) (PSI 1-6); higher = more stable
Details: c terminus: a fixed tail appended
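Note: lentivirally expressed fusions sorted by FACS into six bins by GFP to DsRed ratio, PSI derived from sequencing read proportions per bin multiplied by bin number.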

Protein stability index, by site and new letter:
N24: F 2.79; A 3.04; M 2.96; G 3.05; I 3.07; K 2.2; E 3.84; P 3.02; R 2.14
E5: I 2.64; V 1.92; D 2.38; L 2.08; F 2.74; W 1.86; N 2.69; P 2.94
E8: M 1.62; A 2.03; V 1.71; Y 1.79; P 2.27; N 2.46
H15: E 4.15; V 2.31; G 3.07; D 3.15; Q 1.99; L 2.7; N 3.02; T 3.03
T14: I 2.13; R 2.73; M 2.72; S 3.18; F 2.63; H 2.65
Q22: W 2.49; D 3.85; F 2.42; C 2.11; I 2.09; H 2.62; M 2.1
V12: F 3.5; I 3.05; H 3.24; W 3.26; Y 3.25; E 3.34; P 2.94; A 3.49; N 2.99
R9: F 2.23; T 2.58; E 4.05; C 2.68; P 3.29; Y 2.14; S 2.49; Q 2.18
Y20: I 2.62; D 4.19; H 2.43; L 3; W 2.42; V 4.11; T 3.63; K 3.92
P1: K 2.25; D 1.82; F 2.48; C 2.34; Y 3.12; T 2.58; L 1.67; Q 2.81; H 2.6
L13: S 2.52; A 2.71; T 2.65; R 4.15; D 3.18; H 3.6; F 2.51
F16: M 3.09; R 2.21; H 4.05; Q 4.78; S 4.35; T 3.91; A 3.85; N 3.58; K 3; W 2.1; G 3.84
L2: P 2.99; Y 1.9; V 3.35; R 3.08; M 2.56; I 3.17
S17: C 4.84; Y 2.89; D 3.37; K 2.95; F 1.68; G 3.85; R 2.42; P 3.18; H 3.2; Q 2.97
R18: Y 1.97; C 1.77; E 4.21; H 3.96; M 2.14; S 3.54; I 2.27; K 3.09; D 4.01; N 3.06; T 3.09
Q7: S 3.11; H 3.23; K 2.4; W 1.44; F 2.73; N 2.9; M 2.22; I 1.97; G 2.42; R 2.26; A 3.21
G4: P 3.62; S 2.92; I 2.76; W 2.07; F 2.31; E 3.95; C 2.49
R19: T 3.21; Y 1.98; H 3.24; C 3.28; Q 3.29; V 3.09; P 3.59; F 2.88; L 2.4; D 3.25; M 2.22
C23: W 2.67; M 2.92; L 2.9; T 3.87; D 4.04; Q 4.39; F 3.18; H 3.44; R 3.6
C21: N 3.29; P 3.92; M 3.61; S 3.53; F 3.27; T 4.43
